# Biological target: Type V collagen from human placenta (human) (UniProt P20908)
# Assay: ELISA; type V collagen coated on 96-well plates (10 ug/ml in carbonate coating buffer, overnight 4 °C), blocked with 0.5 % BSA in TBS; about 1.0x10^8 whole bacteria per well, 1 h at 37 °C; adhered bacteria detected with anti-serotype a or anti-serotype b whole-cell polyclonal antibody and HRP secondary; activity normalised to a reference strain set at 100 %
# Chain of UniProt P20908 (P20908 38-1605, chain 1 of 2): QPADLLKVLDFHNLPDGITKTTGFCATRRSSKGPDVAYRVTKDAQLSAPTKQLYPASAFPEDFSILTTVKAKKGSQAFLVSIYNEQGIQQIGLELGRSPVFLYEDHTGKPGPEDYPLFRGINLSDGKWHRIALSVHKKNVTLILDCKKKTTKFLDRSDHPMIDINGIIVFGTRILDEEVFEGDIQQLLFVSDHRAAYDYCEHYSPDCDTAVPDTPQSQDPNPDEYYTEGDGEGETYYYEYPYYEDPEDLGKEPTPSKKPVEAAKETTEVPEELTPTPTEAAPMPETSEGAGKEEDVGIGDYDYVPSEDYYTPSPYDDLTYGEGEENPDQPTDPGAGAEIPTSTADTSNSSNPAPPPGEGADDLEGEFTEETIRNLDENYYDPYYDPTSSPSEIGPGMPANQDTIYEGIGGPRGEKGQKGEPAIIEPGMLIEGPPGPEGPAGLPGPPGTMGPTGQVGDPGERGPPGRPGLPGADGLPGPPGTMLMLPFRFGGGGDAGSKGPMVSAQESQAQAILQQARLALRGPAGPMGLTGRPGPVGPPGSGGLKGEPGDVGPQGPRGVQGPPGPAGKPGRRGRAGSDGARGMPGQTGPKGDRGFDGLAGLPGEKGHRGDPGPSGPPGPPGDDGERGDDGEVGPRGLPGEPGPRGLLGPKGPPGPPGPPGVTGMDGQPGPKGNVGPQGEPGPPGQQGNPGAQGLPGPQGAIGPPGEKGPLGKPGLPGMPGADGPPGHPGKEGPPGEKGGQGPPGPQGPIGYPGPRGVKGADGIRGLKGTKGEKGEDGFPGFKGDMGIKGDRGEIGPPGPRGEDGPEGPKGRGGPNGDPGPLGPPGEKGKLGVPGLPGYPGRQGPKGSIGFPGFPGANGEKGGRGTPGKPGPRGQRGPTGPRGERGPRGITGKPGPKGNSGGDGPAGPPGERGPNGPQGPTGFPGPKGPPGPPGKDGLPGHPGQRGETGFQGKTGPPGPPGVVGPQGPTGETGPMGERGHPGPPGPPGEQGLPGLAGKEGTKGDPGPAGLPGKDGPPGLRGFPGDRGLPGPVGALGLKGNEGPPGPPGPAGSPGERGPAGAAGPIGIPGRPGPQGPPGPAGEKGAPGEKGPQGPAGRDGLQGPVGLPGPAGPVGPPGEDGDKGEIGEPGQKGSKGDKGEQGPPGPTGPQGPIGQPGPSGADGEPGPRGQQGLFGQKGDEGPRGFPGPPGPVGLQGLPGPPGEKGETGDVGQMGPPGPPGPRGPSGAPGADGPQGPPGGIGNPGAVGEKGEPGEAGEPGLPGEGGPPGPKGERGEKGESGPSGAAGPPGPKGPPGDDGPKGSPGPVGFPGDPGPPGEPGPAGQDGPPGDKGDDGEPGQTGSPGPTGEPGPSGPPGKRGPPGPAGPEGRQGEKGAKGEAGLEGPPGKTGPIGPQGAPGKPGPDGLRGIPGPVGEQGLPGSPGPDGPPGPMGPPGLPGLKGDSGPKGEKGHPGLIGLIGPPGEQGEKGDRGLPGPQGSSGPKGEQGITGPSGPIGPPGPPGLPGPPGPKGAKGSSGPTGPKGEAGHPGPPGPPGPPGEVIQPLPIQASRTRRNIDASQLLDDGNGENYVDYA
# Chain of UniProt P20908 (P05997 27-1229, chain 2 of 2, further chain): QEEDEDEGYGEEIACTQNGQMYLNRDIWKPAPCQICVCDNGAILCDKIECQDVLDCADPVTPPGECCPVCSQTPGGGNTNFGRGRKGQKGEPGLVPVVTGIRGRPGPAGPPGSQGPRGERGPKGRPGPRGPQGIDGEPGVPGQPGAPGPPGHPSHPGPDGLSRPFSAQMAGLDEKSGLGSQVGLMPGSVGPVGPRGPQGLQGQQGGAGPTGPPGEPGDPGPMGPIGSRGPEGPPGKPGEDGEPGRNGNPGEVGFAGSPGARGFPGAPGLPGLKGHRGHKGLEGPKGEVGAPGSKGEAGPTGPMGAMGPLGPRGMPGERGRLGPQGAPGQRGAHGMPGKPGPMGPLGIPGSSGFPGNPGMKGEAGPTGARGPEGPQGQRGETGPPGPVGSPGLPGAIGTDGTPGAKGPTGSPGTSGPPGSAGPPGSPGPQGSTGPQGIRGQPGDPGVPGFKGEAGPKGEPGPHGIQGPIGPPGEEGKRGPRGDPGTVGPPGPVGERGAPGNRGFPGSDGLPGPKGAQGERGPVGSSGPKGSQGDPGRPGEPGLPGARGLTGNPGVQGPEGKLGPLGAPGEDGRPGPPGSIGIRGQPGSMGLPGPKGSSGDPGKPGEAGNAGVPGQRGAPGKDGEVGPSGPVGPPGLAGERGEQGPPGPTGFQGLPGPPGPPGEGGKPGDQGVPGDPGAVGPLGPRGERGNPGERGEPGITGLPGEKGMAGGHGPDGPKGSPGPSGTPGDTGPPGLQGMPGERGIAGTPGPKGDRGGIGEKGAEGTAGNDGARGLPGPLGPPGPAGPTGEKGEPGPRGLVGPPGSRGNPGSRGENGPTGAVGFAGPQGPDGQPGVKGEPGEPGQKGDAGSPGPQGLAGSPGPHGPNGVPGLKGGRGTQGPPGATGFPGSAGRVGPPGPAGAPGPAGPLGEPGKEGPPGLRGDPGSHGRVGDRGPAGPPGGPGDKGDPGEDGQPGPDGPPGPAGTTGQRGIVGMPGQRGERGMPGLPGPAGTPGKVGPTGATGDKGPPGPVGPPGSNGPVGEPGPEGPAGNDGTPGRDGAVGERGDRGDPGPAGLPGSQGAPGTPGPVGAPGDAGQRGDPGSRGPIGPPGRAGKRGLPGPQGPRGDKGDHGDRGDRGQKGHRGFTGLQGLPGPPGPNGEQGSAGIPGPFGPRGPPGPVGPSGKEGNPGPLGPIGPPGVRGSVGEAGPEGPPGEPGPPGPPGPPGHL
Substance,fold increase in collagen binding over the emaA mutant strain ATCC 29523,fold increase in collagen binding over the rmlC mutant strain,fold of the collagen binding of the serotype b wild-type strain
"a-EmaA (extracellular matrix protein adhesin A, 173 kDa isoform of serotype a) expressed from pKM753 in strain ATCC 29523 (natural protein)",> 2 fold,–,–
a-EmaA expressed from a plasmid in the serotype b O-PS-deficient rmlC mutant strain (natural protein),–,4.6 fold,> 2 fold

# Source: paper PMC10233464
